This series deals with the molecule itself. Description: SEC + other: negative-staining EM.

The record followed here is article doi:10.1101/2021.11.09.467869 (bioRxiv, 2021).

B1: L6 TIR domain (L6^TIR), residues 26-231 (domain or fragment, UniProt Q40253 26-231, looked up)
chain: PNSKDSIVNDDDDSTSEVDAISDSTNPSGSFPSVEYEVFLSFRGPDTREQFTDFLYQSLRRYKIHTFRDDDELLKGKEIGPNLLRAIDQSKIYVPIISSGYADSKWCLMELAEIVRRQEEDPRRIILPIFYMVDPSDVRHQTGCYKKAFRKHANKFDGQTIQNWKDALKKVGDLKGWHIGKNDKQGAIADKVSADIWSHISKENLI
Consider B1, for which the binding result was “binds”.
